# Experimental data: article PMC9945446, “DNMT1 inhibition by pUG-fold quadruplex RNA”
# B1: (GGAA)10 (structured_RNA)
# RNA: GGAAGGAAGGAAGGAAGGAAGGAAGGAAGGAAGGAAGGAA
# B2: (A)40 (ssRNA)
# RNA: AAAAAAAAAAAAAAAAAAAAAAAAAAAAAAAAAAAAAAAA
# B3: Hemimethylated DNA substrate (dsDNA)
# DNA 1: TACGTATCCGTATCCGGTTACGTATCCGAATCCGTACCGT
# DNA 2: ACGGTACGGATTCGGATACGTAACCGGATACGGATACGTA
# modifications: 5mC at strand 1 positions 3,9,15,21,27,33,38
# B4: (GU)30 (structured_RNA)
# RNA: GUGUGUGUGUGUGUGUGUGUGUGUGUGUGUGUGUGUGUGUGUGUGUGUGUGUGUGUGUGU
# B5: (GU)20 (structured_RNA)
# RNA: GUGUGUGUGUGUGUGUGUGUGUGUGUGUGUGUGUGUGUGU
# B6: (GU)12 (structured_RNA)
# RNA: GUGUGUGUGUGUGUGUGUGUGUGU
# Experiments:
# [1] = target: T1, DNMT1 (human, UniProt P26358 1-1616); test: EMSA; 100 mM KCl; 50 mM Tris-HCl pH 7.5, 100 mM KCl (or LiCl), 2.5 mM MgCl2, 0.1 mM ZnCl2, 2 mM BME, 0.05% NP40, 5% glycerol, 0.1 mg/mL BSA, 0.1 mg/mL yeast tRNA; 30 C 1 h; 1% agarose gel in 1x TBE at 4 C; conditions: protein: recombinant; tags: MBP tag cleaved with PreScission protease; label: 5' 32P; canonical G4
# T1 sequence (P26358 whole entry): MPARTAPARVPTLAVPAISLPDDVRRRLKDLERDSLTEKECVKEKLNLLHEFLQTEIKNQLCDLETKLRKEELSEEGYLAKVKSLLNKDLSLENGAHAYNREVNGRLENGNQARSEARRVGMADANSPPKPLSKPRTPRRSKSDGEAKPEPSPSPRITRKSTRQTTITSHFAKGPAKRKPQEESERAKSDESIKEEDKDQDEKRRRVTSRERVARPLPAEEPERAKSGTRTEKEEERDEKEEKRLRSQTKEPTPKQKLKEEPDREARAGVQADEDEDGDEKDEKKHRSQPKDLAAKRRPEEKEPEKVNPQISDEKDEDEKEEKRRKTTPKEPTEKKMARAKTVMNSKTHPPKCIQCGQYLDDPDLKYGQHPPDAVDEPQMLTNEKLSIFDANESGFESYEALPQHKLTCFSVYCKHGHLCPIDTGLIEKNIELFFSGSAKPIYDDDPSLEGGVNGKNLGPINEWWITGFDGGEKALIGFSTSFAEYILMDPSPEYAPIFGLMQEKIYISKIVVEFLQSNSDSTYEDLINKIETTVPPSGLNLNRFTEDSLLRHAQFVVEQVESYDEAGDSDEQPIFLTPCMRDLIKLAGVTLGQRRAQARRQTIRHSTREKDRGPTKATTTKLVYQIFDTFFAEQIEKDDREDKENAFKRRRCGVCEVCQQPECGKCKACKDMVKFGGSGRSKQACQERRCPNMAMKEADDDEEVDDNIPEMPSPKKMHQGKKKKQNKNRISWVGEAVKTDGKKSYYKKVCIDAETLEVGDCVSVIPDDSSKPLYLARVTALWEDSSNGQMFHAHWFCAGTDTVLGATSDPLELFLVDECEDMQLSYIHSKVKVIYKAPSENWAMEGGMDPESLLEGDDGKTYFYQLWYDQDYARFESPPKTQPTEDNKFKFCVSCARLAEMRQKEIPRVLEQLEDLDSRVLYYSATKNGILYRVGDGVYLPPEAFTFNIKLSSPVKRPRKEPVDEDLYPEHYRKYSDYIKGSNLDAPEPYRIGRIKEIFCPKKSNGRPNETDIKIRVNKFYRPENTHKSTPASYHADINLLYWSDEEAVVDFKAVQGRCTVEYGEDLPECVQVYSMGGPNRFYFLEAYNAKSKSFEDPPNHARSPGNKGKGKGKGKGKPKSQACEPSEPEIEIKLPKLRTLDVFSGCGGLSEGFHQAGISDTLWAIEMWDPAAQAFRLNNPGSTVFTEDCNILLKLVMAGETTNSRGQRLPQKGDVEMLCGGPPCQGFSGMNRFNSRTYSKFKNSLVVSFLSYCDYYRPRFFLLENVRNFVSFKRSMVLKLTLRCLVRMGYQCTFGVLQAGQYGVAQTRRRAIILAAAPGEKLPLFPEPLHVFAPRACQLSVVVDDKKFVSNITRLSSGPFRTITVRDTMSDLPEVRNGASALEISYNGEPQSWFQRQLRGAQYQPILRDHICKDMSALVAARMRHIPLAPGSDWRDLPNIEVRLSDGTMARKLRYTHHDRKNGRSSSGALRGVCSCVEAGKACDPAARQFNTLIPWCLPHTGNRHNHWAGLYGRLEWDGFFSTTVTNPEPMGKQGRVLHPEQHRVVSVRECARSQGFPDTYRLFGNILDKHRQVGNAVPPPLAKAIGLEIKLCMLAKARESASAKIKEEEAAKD
# [2] = target: T1, DNMT1; test: EMSA; 100 mM KCl; undetectable; 50 mM Tris-HCl pH 7.5, 100 mM KCl (or LiCl), 2.5 mM MgCl2, 0.1 mM ZnCl2, 2 mM BME, 0.05% NP40, 5% glycerol, 0.1 mg/mL BSA, 0.1 mg/mL yeast tRNA; 30 C 1 h; 1% agarose gel in 1x TBE at 4 C; conditions: protein: recombinant; tags: MBP tag cleaved with PreScission protease; label: 5' 32P; unstructured
# [3] = target: T1, DNMT1; test: EMSA; 100 mM KCl; 50 mM Tris-HCl pH 7.5, 100 mM KCl (or LiCl), 2.5 mM MgCl2, 0.1 mM ZnCl2, 2 mM BME, 0.05% NP40, 5% glycerol, 0.1 mg/mL BSA, 0.1 mg/mL yeast tRNA; 30 C 1 h; 1% agarose gel in 1x TBE at 4 C; conditions: protein: recombinant, tags: MBP tag cleaved with PreScission protease; for Kd: label: 5' 32P
# [4] = target: T1, DNMT1; test: as above; conditions: protein: recombinant; tags: MBP tag cleaved with PreScission protease; label: 5' 32P; one pUG-fold in K+
binder,measurement,setting,value
B1,binding signal,[1],3 fold weaker than (GU)20
B2,binding result,[2],no binding
B3,binding result,"[3]; label: 32P end label, blunt",binds
B4,Kd,"[3]; pUG-fold, possibly two",13 nM
B5,Kd,[3]; pUG-fold (noncanonical G4) in K+,69 nM
B6,binding signal,[4],5 fold weaker than (GU)20
